Our source for the response values is paper PMC3906981.

The first experiment deals with HA-tagged PAK2 (p21 protein (Cdc42/Rac)-activated kinase) (UniProt Q13177). As to the kind of experiment: co-immunoprecipitation (anti-AU1) with in vitro kinase assay, densitometric quantification. Also noted: reference not given here. The following applies: cells transfected with Nef, CDC42V12 and PAK2-HA; parent: 114.
Chain of UniProt Q13177 (Q13177 whole entry): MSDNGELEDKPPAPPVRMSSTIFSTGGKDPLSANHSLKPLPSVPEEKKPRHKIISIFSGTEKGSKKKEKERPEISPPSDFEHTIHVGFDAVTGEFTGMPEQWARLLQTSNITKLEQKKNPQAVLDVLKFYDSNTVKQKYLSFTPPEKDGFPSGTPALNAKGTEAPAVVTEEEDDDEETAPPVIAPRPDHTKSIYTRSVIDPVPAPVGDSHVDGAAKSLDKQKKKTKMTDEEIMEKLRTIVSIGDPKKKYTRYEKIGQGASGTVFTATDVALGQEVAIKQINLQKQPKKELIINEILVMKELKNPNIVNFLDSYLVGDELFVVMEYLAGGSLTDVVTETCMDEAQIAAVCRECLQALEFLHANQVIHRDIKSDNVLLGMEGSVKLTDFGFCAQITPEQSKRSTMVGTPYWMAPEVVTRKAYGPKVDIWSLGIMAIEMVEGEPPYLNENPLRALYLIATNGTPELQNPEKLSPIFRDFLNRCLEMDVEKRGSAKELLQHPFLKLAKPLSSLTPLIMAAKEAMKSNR
Take “AU1-tagged SIVblu Nef, wild-type R129A; R130A”: the response stood at 0.

Still in this experiment, the particulars now being: cells transfected with Nef, CDC42V12 and PAK2-HA; parent: 160.
“AU1-tagged SIVmac239 Nef, wild-type H121R; Y221R”: the response is 0.
Still for that read-out and setting: the result for “AU1-tagged SIVmac239 Nef, wild-type H121R” reads 23.
Same read-out and setting: the result for “AU1-tagged SIVmac239 Nef, wild-type P107A” reads 59; that for “AU1-tagged SIVmac239 Nef, wild-type Y221R”, 26.
On to “AU1-tagged SIVmac239 Nef, wild-type P104A”, for which the response was 123.
With “AU1-tagged SIVmac239 Nef, wild-type P104A; P107A”, the response is 34.
